Laboratory results: patent publication US20130078718A1, “CONVERSION OF VASCULAR ENDOTHELIAL CELLS INTO MULTIPOTENT STEM-LIKE CELLS” (PRESIDENT AND FELLOWS OF HARVARD COLLEGE, priority 2010, published 2013)
Entries after “also recorded” stand apart in the source; their conditions may differ.

Key:
ALK2 with ALK5 = molecular target: T1, ALK2 with ALK5 (Homo sapiens, UniProt Q04771); experiment: Interaction of ALK2 with ALK5: immunoprecipitation of ALK2, immunoblotting for ALK5; type: cell-based; conditions: 10 ng ml−1, 15 min
T1 construct: endogenous in cells; host or cells: HUVEC
T1 sequence (Q04771 21-509): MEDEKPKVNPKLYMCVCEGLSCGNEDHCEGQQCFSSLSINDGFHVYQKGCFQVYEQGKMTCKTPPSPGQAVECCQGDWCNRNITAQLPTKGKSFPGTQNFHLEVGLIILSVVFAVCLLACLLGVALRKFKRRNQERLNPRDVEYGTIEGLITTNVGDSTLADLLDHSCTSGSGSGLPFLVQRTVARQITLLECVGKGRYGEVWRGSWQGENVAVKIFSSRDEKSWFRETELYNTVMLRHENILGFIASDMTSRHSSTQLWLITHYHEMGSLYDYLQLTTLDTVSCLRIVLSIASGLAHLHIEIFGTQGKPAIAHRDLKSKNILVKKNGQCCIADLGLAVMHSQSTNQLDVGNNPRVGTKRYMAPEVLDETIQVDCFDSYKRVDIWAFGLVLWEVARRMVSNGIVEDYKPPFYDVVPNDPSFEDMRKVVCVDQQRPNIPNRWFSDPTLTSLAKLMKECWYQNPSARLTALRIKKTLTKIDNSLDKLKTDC
Protocol: Human umbilical vein endothelial cells (HUVEC) and human cutaneous microvascular endothelial cells (HCMEC) isolated as previously described (35). Cells were tested for purity and found to express no markers for lymphatic endothelial cells or stromal cells (pericytes, smooth muscle cells, etc.) (36). This was reconfirmed by flow cytometry analysis (data not shown). Clonal populations were isolated with PYREX 8×8 mm cloning cylinders (Corning) and shown to respond in a manner identical to that of the cultures used for our experiments (FIG. 25B-D). Cells were grown in culture using EGM-2 medium (Cambrex), containing 10% FBS and 1% Penicillin/Streptomycin, followed by human endothelial serum free medium (Gibco) 24 h prior to all experimental conditions. Bone marrow derived mesenchymal stem cells (ScienCell Research Laboratories) were grown in mesenchymal stem cell medium (ScienCell Research Laboratories). Bone marrow derived hematopoietic stem cells (Lonza) were grown in HPGM medium (Lonza). Human corneal fibroblasts, from a stock provided by Dr. Elizabeth Hay (Harvard Medical School), were grown in RPMI medium, containing 10% FBS and 1% Penicillin/Streptomycin. Primary human osteoblasts, chondrocytes, and adipocytes and their respective growth media were obtained from Cell Applications, Inc. […] Recombinant VEGF (R&D Systems) was added to cultures at a concentration of 25 ng ml^-1. Dorsomorphin (Sigma-Aldrich) was added to cultures at a concentration of 5 μM. All experiments for this study were performed at minimum in triplicate. Immunoassays were performed using the following antibodies at concentrations (and using protocols) recommended by the respective manufacturers: […] Stressgen), phospho-Smad2 (3101), Smad2 (3122), phospho-Smad5 (9516), Smad5 (9517; […] Santa Cruz Biotechnology), osterix (ab22552), adiponectin (ab22554), N-cadherin (ab76057), NG2 (ab83508), vWF (ab68545; Abcam); CD31 (IR610; Dako), […]; GenScript); α-SMA ([…]), β-actin (A1978; Sigma-Aldrich). […] Images were acquired using a Nikon 80i fluorescence microscope.

[1] = tested on: Human umbilical vein endothelial cells (HUVECs) and human cutaneous microvascular endothelial cells (HCMECs); experiment: Endothelial-mesenchymal transition (EndMT) in endothelial cells: morphology, marker expression by immunoblotting, flow cytometry, real-time PCR, ELISA; type: cell-based

| Substance | ALK5 in ALK2 immunoprecipitates (ALK2 with ALK5) | TIE2 levels after 96 h of treatment [1] |
| --- | --- | --- |
| BMP4: Recombinant BMP4 protein (R&D Systems), ALK2 activating ligand, used at 10 ng/mL | presence of ALK5 | small decrease; also recorded: slight decrease |
| TGF-β2: Recombinant TGF-β2 protein (R&D Systems), ALK2 activating ligand, used at 10 ng/mL | presence of ALK5 | small decrease; also recorded: slight decrease |
